Laboratory results: publication PMC12101541

Legend:
[1] = molecular target: full-length TgSkp1 (Skp1 from Toxoplasma gondii), unmodified (Toxoplasma gondii); assay: AUC; sedimentation velocity, 50,000 rpm, 20 °C, 50 mM K phosphate (pH 7.4), 25 mM KCl (standard buffer); Sw isotherm fitted with a monomer-dimer self-association model (SedPhat); dimer to monomers
[2] = molecular target: TgSkp1-poly-Ser (TgSkp1 with the CTR replaced by poly-serine) (Toxoplasma gondii); assay: as above
[3] = molecular target: GGlFGGn-TgSkp1 (fully glycosylated TgSkp1, GalGlcFucGalGlcNAc glycan at Hyp154) (Toxoplasma gondii); assay: as above
[4] = molecular target: TgSkp1ΔCTR (TgSkp1 lacking the C-terminal region) (Toxoplasma gondii); assay: as above
[5] = molecular target: TgSkp1ΔloopΔCTR (TgSkp1 with the internal loop replaced by GGSG and the CTR deleted) (Toxoplasma gondii); assay: as above
[6] = molecular target: TgSkp1ΔloopΔCTR (TgSkp1 with the internal loop replaced by GGSG and the CTR deleted) (Toxoplasma gondii); assay: AUC; sedimentation velocity as in the standard experiment but with 600 mM KCl (high salt, ionic strength of 710 mM); Sw isotherm, monomer-dimer model; dimer to monomers
[7] = molecular target: TgSkp1Δloop (TgSkp1 with the internal disordered loop replaced by GGSG) (Toxoplasma gondii); assay: AUC; sedimentation velocity, 50,000 rpm, 20 °C, 50 mM K phosphate (pH 7.4), 25 mM KCl (standard buffer); Sw isotherm fitted with a monomer-dimer self-association model (SedPhat); dimer to monomers
[8] = molecular target: TgSkp1Δloop (TgSkp1 with the internal disordered loop replaced by GGSG) (Toxoplasma gondii); assay: AUC; sedimentation velocity as in the standard experiment but with 600 mM KCl (high salt, ionic strength of 710 mM); Sw isotherm, monomer-dimer model; dimer to monomers

Substance “full-length TgSkp1 (Skp1 from Toxoplasma gondii), unmodified (natural protein)” has a Kd [1] of 0.05 µM, a degree of dissociation at 300 nM [1] of 18% and a stoichiometry N [1] of 2.

Work on “TgSkp1-poly-Ser (TgSkp1 with the CTR replaced by poly-serine)” yielded a Kd [2] of 0.9 µM and a stoichiometry N [2] of 2.

With “GGlFGGn-TgSkp1 (fully glycosylated TgSkp1, GalGlcFucGalGlcNAc glycan at Hyp154) (natural protein)” the Kd [3] was 0.4 µM and the stoichiometry N [3] was 2.

With “TgSkp1ΔCTR (TgSkp1 lacking the C-terminal region) (domain or fragment)” the Kd [4] was 0.9 µM and the stoichiometry N [4] was 2.

Work on “TgSkp1ΔloopΔCTR (TgSkp1 with the internal loop replaced by GGSG and the CTR deleted) (domain or fragment)” yielded a Kd [5] of 2.4 µM, a stoichiometry N [5] of 2 and a Kd [6] of 1.9 µM.

With “TgSkp1Δloop (TgSkp1 with the internal disordered loop replaced by GGSG) (natural protein)” the Kd [7] was 0.2 µM, the stoichiometry N [7] was 2 and the Kd [8] was 8.5 µM.
